Consider five molecules from US20080187980A1, “Method for identifying potential agonists or antagonists using the three-dimensional structure of caspase-7” (Vertex Pharmaceuticals Incorporated, priority 1999, published 2008).

In one data set the test system is group III caspases. The note with it: cited from earlier work.
For a further data set, the target named is T1, caspase-1 (Homo sapiens, UniProt P29466).
T1 sequence (P29466 120-297 limits assumed): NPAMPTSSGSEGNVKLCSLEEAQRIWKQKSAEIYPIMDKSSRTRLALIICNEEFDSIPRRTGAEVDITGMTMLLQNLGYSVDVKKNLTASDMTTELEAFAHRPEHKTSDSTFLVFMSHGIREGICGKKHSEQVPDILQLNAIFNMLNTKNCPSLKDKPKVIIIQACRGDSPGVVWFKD
T1 sequence (P29466 317-404 limits assumed): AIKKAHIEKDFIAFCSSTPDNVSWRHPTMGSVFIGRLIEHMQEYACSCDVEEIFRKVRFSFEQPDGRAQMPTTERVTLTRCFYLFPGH
The note with it: cited from earlier work; for Ki: reported, Garcia-Calvo et al. 1998.

The next data set addresses T2, caspase-7 (Homo sapiens, UniProt P55210).
T2 sequence (P55210 24-198 limits assumed): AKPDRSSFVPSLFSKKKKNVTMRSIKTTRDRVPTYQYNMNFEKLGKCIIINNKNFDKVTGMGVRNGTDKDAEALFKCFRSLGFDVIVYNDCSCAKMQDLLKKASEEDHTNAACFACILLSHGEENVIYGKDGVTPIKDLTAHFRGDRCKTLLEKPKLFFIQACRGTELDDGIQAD
T2 sequence (P55210 207-303 limits assumed): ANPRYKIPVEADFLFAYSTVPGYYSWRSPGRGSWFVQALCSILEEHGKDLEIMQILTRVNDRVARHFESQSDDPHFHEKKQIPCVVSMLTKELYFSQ
The note with it: reported, Garcia-Calvo et al. 1998; cited from earlier work.

The next data set deals with caspase-8 (Homo sapiens, UniProt Q14790). The note with it: reported, Garcia-Calvo et al. 1998; cited from earlier work.
Data set [1] relates to all other group II and group III caspases except caspase-8. The note with it: group II and group III caspases other than caspase-8; cited from earlier work.
The target of a further data set is T3, Caspase-4 (Homo sapiens, UniProt P49662).
T3 sequence (P49662 81-270 limits assumed): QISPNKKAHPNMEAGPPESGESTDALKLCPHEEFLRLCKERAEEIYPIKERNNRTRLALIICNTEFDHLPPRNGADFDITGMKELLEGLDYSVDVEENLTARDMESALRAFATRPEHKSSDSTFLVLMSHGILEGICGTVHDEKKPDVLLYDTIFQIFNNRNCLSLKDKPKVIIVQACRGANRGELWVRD
T3 sequence (P49662 290-377 limits assumed): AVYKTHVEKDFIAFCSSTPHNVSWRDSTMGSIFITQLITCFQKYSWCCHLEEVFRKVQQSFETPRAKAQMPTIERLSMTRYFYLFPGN
The note with it: Garcia-Calvo et al. 1998; cited from earlier work.

In the next data set the target is T4, Caspase-5 (Homo sapiens, UniProt P51878).
T4 sequence (P51878 137-327 limits assumed): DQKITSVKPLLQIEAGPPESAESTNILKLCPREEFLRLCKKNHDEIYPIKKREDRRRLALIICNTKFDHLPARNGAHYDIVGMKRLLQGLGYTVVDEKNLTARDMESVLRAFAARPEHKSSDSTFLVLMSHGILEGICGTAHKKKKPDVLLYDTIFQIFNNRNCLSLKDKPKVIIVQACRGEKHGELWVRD
T4 sequence (P51878 347-434 limits assumed): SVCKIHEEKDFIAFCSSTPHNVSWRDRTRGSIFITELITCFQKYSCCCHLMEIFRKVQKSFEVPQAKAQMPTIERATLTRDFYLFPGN
The note with it: Garcia-Calvo et al. 1998; cited from earlier work.

Data set [2] has as its target T5, Ac-DEVD-aminoemethylcoumarin.
T5 chain: DEVD

Chain of caspase-8 (Q14790 217-374 limits assumed, one chain of several): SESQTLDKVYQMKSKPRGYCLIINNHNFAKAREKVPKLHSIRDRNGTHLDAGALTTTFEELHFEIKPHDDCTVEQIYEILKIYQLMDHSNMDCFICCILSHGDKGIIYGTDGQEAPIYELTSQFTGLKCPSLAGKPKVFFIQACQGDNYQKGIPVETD

In the case of “Ac-YVAD-CHO: tetrapeptide aldehyde inhibitor, SEQ ID NO: 4”, the “inhibitory potency against group III caspases (in words)” value in the data set on group III caspases is “modest inhibitory potency”. Moreover, the “inhibitory potency against caspase-1 (in words)” value in the data set with caspase-1 is listed as “good inhibitory potency”.
The Ki is the equilibrium dissociation constant of an inhibitor or competing ligand from its target. With “acetyl-Asp-Glu-Val-Asp-CHO [Ac-DEVD-CHO]”, the Ki with caspase-7 is 1.6 nM; with caspase-1, 18 nM; in the data set with caspase-8, 0.92 nM.
As for “AcWEHD-CHO (Ac-WEHD-aldehyde; SMILES CC(=O)N[C@@H](Cc1c[nH]c2ccccc12)C(=O)N[C@@H](CCC(=O)O)C(=O)N[C@@H](Cc1c[nH]cn1)C(=O)N[C@H](C=O)CC(=O)O)”, the “inhibition of all other group II and group III caspases except caspase-8 (in words)” value in data set [1] is given as “poor inhibitor”. Also, the Ki was 97 nM with Caspase-4, 0.056 nM in the data set with caspase-1, 43 nM with Caspase-5 and 21 nM with caspase-8.

B1: Triple mutant caspase-8 (residues 233-479; Lys to Arg at residues 246, 250 and 253; Pro370 and Val371 removed) (protein)
chain: RGYCLIINNHNFARARERVPRLHSIRDRNGTHLDAGALTTTFEELHFEIKPHDDCTVEQIYEILKIYQLMDHSNMDCFICCILSHGDKGIIYGTDGQEAPIYELTSQFTGLKCPSLAGKPKVFFIQACQGDNYQKGIPVETDSEEQPYLEMDLSSPQTRYIPDEADFLLGMATVNNCVSYRNPAEGTWYIQSLCQSLRERCPRGDDILTILTEVNYEVSNKDDKKNMGKQMPQPTFTLRKKLVFPSD
On to B1, for which, in data set [2], the kcat/Km result was “both enzymes appear to be indistinguishable, yielding a kcat/Km of 1×10^5 Ml-s^1-^1”.

B2: Wild-type caspase-8 (protein)
chain 1: RGYCLIINNHNFAKAREKVPKLHSIRDRNGTHLDAGALTTTFEELHFEIKPHDDCTVEQIYEILKIYQLMDHSNMDCFICCILSHGDKGIIYGTDGQEAPIYELTSQFTGLKCPSLAGKPKVFFIQACQGDNYQKGIPVETD
chain 2: LSSPQTRYIPDEADFLLGMATVNNCVSYRNPAEGTWYIQSLCQSLRERCPRGDDILTILTEVNYEVSNKDDKKNMGKQMPQPTFTLRKKLVFPSD
Turning to B2, the kcat/Km entry in data set [2] was “both enzymes appear to be indistinguishable, yielding a kcat/Km of 1×10^5 Ml-s^1-^1”.
